# Measurements: the RNAGym collection of RNA variant scans (doi:10.7554/elife.80360)
# B1: Hairpin Ribozyme (parent)
# chain: GUCCUCUUUCACGUGCGCGUGAAAGAGAGAAGUGAACCAGAGAAACACACGUUGUGGUAUAUUACCUGGUA
# Variants of: B1
# Assay: self-cleavage, relative activity (ratio to wild type); higher = more cleavage; co-transcriptional
row,Variant,self-cleavage
1,G1C G17U,0.204
2,U2A G51U,0.228
3,G1A U7G,0.148
4,G1A U5A,0.152
5,G1U A49G,0.234
6,G1C C37G,0.0832
7,G1C C37A,0.0534
8,U2C A31G,0
9,U2C A31U,0.25
10,U2A C66G,0.161
11,U2A C66U,0.127
12,G1U A22G,0.101
13,G1U A22U,0.119
14,G1A U62A,0.192
15,G1A G32C,0.318
16,G1A U9G,0.293
17,G1A U9A,0.198
18,G1A U9C,0.167
19,G1U G29A,0.08
20,G1U G29C,0.109
21,G1U G29U,0.154
22,U2C C37U,0.113
23,U2C G15A,0.126
24,U2C G15U,0.117

row,Variant,self-cleavage
1,G1C A11G,0.194
2,G1C A11C,0.0386
3,U2A U63G,0.0633
4,G1U C18U,0.121
5,G1A G17A,0.0844
6,G1A G17U,0.127
7,U2A G32A,0.0985
8,G1A A22C,0.11
9,G1A A22U,0.109
10,U2C A47C,0.0817
11,U2A A41U,0.54
12,U2C C3A,0.114
13,G1C A59C,0.113
14,G1U C50A,0.189
15,G1C C12A,0.215
16,G1C C12G,0.188
17,G1C C12U,0.213
18,G1U A36U,0.224
19,G1A U33A,0.175
20,G1A U33C,0.0709
21,G1U U2A,0.11
22,G1U A28G,0.0771
23,G1A G34A,0.18
24,G1A C6G,0.193

row,Variant,self-cleavage
1,G1A C6U,0.195
2,U2A C3G,0.127
3,G1U U7C,0.0995
4,G1A U14A,0.127
5,G1C U9A,0.117
6,G1C U9G,0.125
7,G1U C48U,0.155
8,U2C U7A,0.119
9,G1U C46U,0.0565
10,G1U C46G,0.16
11,G1A U55A,0.229
12,G1A U55C,0.243
13,U2A U60A,0.175
14,U2A C16A,0.221
15,U2A C16U,0.259
16,G1U A41C,0.0514
17,G1U A41U,0.0959
18,U2C U14G,0.075
19,G1A A43G,0.2
20,G1A A43U,0.0738
21,U2A A49U,0.0799
22,G1U U63G,0.0703
23,U2A G57A,0.136
24,G1C G29A,0.174

row,Variant,self-cleavage
1,G1C A24C,0.32
2,G1A G68U,0.176
3,G1A G68A,0.21
4,G1U A59C,0.183
5,G1U A59U,0.195
6,U2A U55A,0.103
7,U2A A31U,0.163
8,U2A A31G,0.334
9,G1C C48A,0.129
10,G1C A22U,0.103
11,U2C C16A,0.0439
12,G1C U14G,0.101
13,U2C G13A,0.217
14,G1U U58C,0.0791
15,G1U G34C,0.143
16,G1A U70C,0.154
17,G1A U70A,0.198
18,U2A G19C,0.106
19,U2A G19A,0.216
20,G1A C46A,0.134
21,G1C C6A,0.245
22,G1U U67C,0.0702
23,G1U U67G,0.097
24,G1A A49C,0.0908

row,Variant,self-cleavage
1,G1A A49U,0.061
2,G1C A28U,0.247
3,G1U G27U,0.199
4,U2C A71G,0.125
5,U2C A71U,0.2
6,G1A G56A,0.181
7,G1C C16U,0.198
8,U2A U70A,0.331
9,U2A U70G,0.224
10,U2A C46A,0.143
11,G1C U2C,0.233
12,G1C U53G,0.046
13,G1A A64U,0.272
14,G1A A64G,0.187
15,G1A U8G,0.158
16,G1A A26U,0.11
17,G1A A26G,0.149
18,U2C G21A,0.0868
19,U2C A45C,0.0982
20,U2C A45G,0.0514
21,G1U C4A,0.202
22,U2A C38U,0.14
23,U2A A47U,0.0626
24,U2A A39U,0.127

row,Variant,self-cleavage
1,G1U G15U,0.102
2,G1U G15C,0.0726
3,U2A U52G,0.203
4,U2C G54A,0.134
5,G1U U55C,0.217
6,G1U U5C,0
7,G1U A23U,0.11
8,U2A U33A,0.077
9,G1A A59G,0.237
10,G1A A59C,0.22
11,G1A A47G,0.123
12,G1A A47C,0.124
13,U2A G21U,0.271
14,G1U A44G,0.0639
15,G1A G40C,0.167
16,G1A G40A,0.199
17,G1A G40U,0.123
18,U2C U53A,0.322
19,G1U G56C,0.229
20,U2C A24U,0.107
21,U2C A24C,0.227
22,G1C U8C,0.172
23,G1C A36U,0.338
24,U2A G25C,0.171

row,Variant,self-cleavage
1,G1C A26U,0.18
2,G1C A30C,0.207
3,G1C A43G,0.113
4,G1A A45C,0.0307
5,G1A A45G,0.0977
6,G1U G40A,0.123
7,G1U G40U,0.111
8,G1C U67A,0.109
9,G1A C65G,0.0867
10,G1A C65U,0.0307
11,G1A C65A,0.285
12,G1U G68C,0.0827
13,G1U G68U,0.051
14,G1U G68A,0.124
15,G1A A31G,0.136
16,G1U C66A,0.242
17,G1U C66G,0.117
18,U2A C65A,0.222
19,G1A G13U,0.208
20,G1A G13C,0.119
21,U2C G17U,0.1
22,G1C U20G,0.0342
23,U2A G29C,0.105
24,U2A G29A,0.0918

row,Variant,self-cleavage
1,G1A C18A,0.185
2,G1A C18G,0.0949
3,U2A C4G,0.0724
4,G1U C12G,0.171
5,G1U C12U,0.17
6,U2A G27U,0.124
7,G1C G68U,0.209
8,G1C G68C,0.379
9,U2A C37U,0.23
10,G1A G21A,0.154
11,G1A G21U,0.127
12,G1U C65A,0.0897
13,G1C C10A,0.102
14,G1U U8C,0.118
15,G1U U60A,0.195
16,G1U U60C,0
17,G1U U53G,0.227
18,U2A A36C,0.143
19,G1U C37U,0.0964
20,G1U C37G,0.0694
21,G1U C37A,0.158
22,U2A G54U,0.119
23,G1U A26G,0.314
24,U2C G57A,0.175

row,Variant,self-cleavage
1,G1C U70A,0.208
2,G1C U70G,0.166
3,G1C U70C,0.155
4,G1C G32C,0.116
5,U2A A59G,0.156
6,U2A A59U,0.141
7,U2A A59C,0.0974
8,G1C G27U,0.142
9,G1U G32C,0.0843
10,G1U G32A,0.146
11,U2C A28U,0.0802
12,G1A G51C,0.0527
13,U2A A26U,0.253
14,G1U U14G,0.184
15,U2A A30G,0.442
16,U2A C50A,0.219
17,U2C U5A,0.118
18,U2A A23U,0.167
19,U2A A64G,0.0976
20,U2C G69U,0.114
21,G1A U52A,0.155
22,U2C A23G,0.116
23,U2C A23U,0.185
24,G1U A64G,0.0823

row,Variant,self-cleavage
1,G1A G57C,0.163
2,U2C G32U,0.183
3,U2A U62A,0.194
4,U2A U62C,0.0796
5,G1A A39G,0.152
6,G1A A39C,0.138
7,U2A G15A,0.216
8,U2C C48G,0.108
9,U2C C48U,0.0586
10,G1A C16U,0.217
11,U2A G68A,0.0992
12,U2A G68U,0.133
13,G1A U58A,0.186
14,G1A U58G,0.256
15,G1C A23G,0.132
16,G1C C50G,0.171
17,U2C G42C,0.108
18,G1U C6A,0.138
19,G1U C6G,0.228
20,G1U C16G,0.127
21,G1U C16U,0.0937
22,U2C A11U,0.197
23,U2A,0.259
24,U2C,0.171

row,Variant,self-cleavage
1,G1A A30G,0.231
2,G1A A30C,0.291
3,U2C U20A,0.25
4,U2C U20G,0.0615
5,G1C U5C,0.361
6,G1C C3U,0.18
7,U2C A36G,0.212
8,G1C G57U,0.0983
9,G1U A31U,0.0996
10,G1A A36G,0.088
11,U2C U8C,0.236
12,U2A G69U,0.151
13,G1A A44G,0.167
14,G1A A44C,0.2
15,U2C C4U,0.0249
16,U2C C4G,0.0947
17,U2C C4A,0.1
18,U2A A11C,0.288
19,G1A C10U,0.235
20,G1A A71G,0.205
21,U2A A45U,0.0686
22,G1C G25U,0.211
23,G1C A64G,0.143
24,G1C A64U,0.107

row,Variant,self-cleavage
1,G1A C37G,0.187
2,U2C C46G,0.0408
3,G1U A30G,0.105
4,G1A U20C,0.188
5,G1A U20G,0.188
6,G1A U60A,0.188
7,G1C U33A,0.0439
8,G1A G42C,0.213
9,G1U U62G,0.163
10,G1U U62C,0.172
11,G1U A35U,0.126
12,G1C C4G,0.301
13,U2A C18G,0.212
14,U2A U9C,0.233
15,U2A U9G,0.179
16,U2C A61G,0.0293
17,G1C G69C,0.303
18,U2C A22U,0.296
19,G1A U2C,0.899
20,G1A U2G,0.895
21,G1A A41U,0.225
22,U2A U67G,0.158
23,U2A U67C,0.0778
24,G1C U58A,0.131

row,Variant,self-cleavage
1,G1A C48U,0.0691
2,G1A C48A,0.156
3,U2C U52G,0.0756
4,U2C U52A,0.287
5,U2C U52C,0.0386
6,G1C A71C,0.328
7,G1C A71U,0.153
8,G1U C38G,0.0981
9,G1U C38U,0.127
10,G1A C4U,0.241
11,G1C U60C,0.314
12,G1C G54A,0.141
13,G1U G69U,0.101
14,G1U G69C,0.0943
15,G1C A61U,0.126
16,G1C A61C,0.249
17,G1C A61G,0.202
18,G1C U52G,0.206
19,U2A U53C,0.292
20,U2A U53A,0.303
21,G1C A35U,0.254
22,U2C G56C,0.166
23,G1C C66U,0.12
24,G1C C66A,0.351

row,Variant,self-cleavage
1,U2A A22C,0.341
2,U2A A22G,0.175
3,U2C A41U,0.283
4,G1C A44G,0.0352
5,G1C G19A,0.197
6,G1A C38U,0.115
7,U2A A43G,0.138
8,G1U A71G,0.115
9,G1C A31G,0.187
10,G1C A31U,0.163
11,G1A G54A,0.191
12,G1A G54U,0.153
13,G1C G34C,0.211
14,G1C G34A,0.162
15,G1C C65U,0.188
16,G1U U52A,0.0595
17,U2C G29A,0.0747
18,U2C A26C,0.0664
19,U2C A26G,0.121
20,G1A A11U,0.302
21,U2A G17A,0.274
22,U2C A43G,0.167
